Measurements from paper PMC9044032, “OsbZIP47 Is an Integrator for Meristem Regulators During Rice Plant Growth and Development” (Frontiers in Plant Science, 2022).

T1: Trx-His-OsbZIP47 FL (Oryza sativa) (UniProt Q5Z6N9)
T1 sequence: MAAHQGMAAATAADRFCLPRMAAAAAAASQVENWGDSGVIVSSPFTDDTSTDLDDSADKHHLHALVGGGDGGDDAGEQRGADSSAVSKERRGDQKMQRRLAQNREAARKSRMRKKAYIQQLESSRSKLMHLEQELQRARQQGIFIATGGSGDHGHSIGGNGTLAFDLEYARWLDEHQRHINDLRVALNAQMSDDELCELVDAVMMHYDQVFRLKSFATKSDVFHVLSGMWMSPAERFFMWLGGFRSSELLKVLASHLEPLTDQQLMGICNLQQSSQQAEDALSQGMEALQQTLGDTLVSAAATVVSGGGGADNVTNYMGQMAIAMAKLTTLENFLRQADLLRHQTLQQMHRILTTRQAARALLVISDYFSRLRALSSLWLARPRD

B1: Thioredoxin-His-tagged OsbZIP47FL (natural protein, rice (Oryza sativa), UniProt Q5Z6N9 1-385, looked up)
chain: T1 sequence
notes: full-length CDS, amino acid 1 to 385; also called Trx-His-OsbZIP47 FL; Trx-His OsbZIP47; source: E. coli Rosetta (DE3), pET32a, purified

Columns and labels:
[1] = target: T1, Trx-His-OsbZIP47 FL (Oryza sativa); assay: MST; conditions: MST: 10 mM HEPES-KOH pH 8.0, 50 mM NaCl, 0.5% Tween-20, 0.5 mM EDTA, 1 mM MgCl2, 10% glycerol, 80 nM protein, DNA 3.05 nM-100 uM, temperature not stated, EMSA: …
[2] = target: the molecule itself; assay: non-reducing SDS-PAGE; purified protein treated with 2 mM diamide, with 20 mM DTT, or with 2 mM diamide followed by 20 mM DTT; non-reducing 10% SDS-PAGE

Row | Molecule | Kd ([1]; oxidized, 1 mM oxidized glutathione) | Kd ([1]; reduced, 20 mM DTT) | binding result [2]
1 | CAGCTGGCCCTGACGTCAGCAACCGG (double strand) [OsFCP1 locus EMSA-371] | 2.16 µM | 0.815 µM | 
2 | B1 |  |  | binds
